Test results taken from article doi:10.1101/2021.02.22.432209 (bioRxiv, 2021).
Like-named read-outs stand apart in the source and are kept apart here.

B1: GABARAP (1-117), His8-TEV-GABARAP (natural protein)
chain: MKFVYKEEHPFEKRRSEGEKIRKKYPDRVPVIVEKAPKARIGDLDKKKYLVPSDLTVGQFYFLIRKRIHLRAEDALFFFVNNVIPPTSATMGQLYQEHHEEDFFLYIAYSDESVYGL
B2: GST-PreScission-p62 FIR 4P (domain or fragment)
chain: MESDNCSGGDDDWTHLSSKEVDPETGELQSLQMPESEGPEELDPEQEGPTGLKEA

Assays:
Experiment in all cases: SPR
[1] = molecular target: B1
[2] = molecular target: T1, Biotinylated FLCN-8xGlycine-AviTag/FNIP2 (human, UniProt Q8NFG4;Q9P278, biotin on the AviTag)
[3] = molecular target: T1, Biotinylated FLCN-8xGlycine-AviTag/FNIP2; remark: listed apart in the source
[4] = molecular target: LC3B (1-125), His8-TEV-LC3B (human, UniProt Q9GZQ8 1-120)
[5] = molecular target: B1; remark: listed apart in the source

How did the Kd [1] turn out when GSKIITALEKGEVEESEYVVITVRNEP [FNIP2 peptide 550-576, wild type (Long)] was run?
The Kd was 29 ± 2 nM.

How did the Kd [1] turn out when EKGEVEESEYVVITVRNEP [FNIP2 peptide 558-576, wild type (Short)] was run?
The Kd was 6200 ± 3000 nM.

For B1, which Kd [2] is on record?
The Kd was 0.071 ± 0.01 nM.

What about the Kd [3] of the same binder?
The Kd was 0.3 ± 0.018 nM.

How did the Kd [4] turn out when B2 was run?
The Kd was 820 ± 40 nM.

And the Kd [5]?
The Kd was 670 ± 80 nM.
